Data set [1] is described as follows: concentration dependence of fluorescence intensity (aggregation). As to conditions: fluorescence intensity linear over 1-250 μM, standard buffer. The class given is physicochemical. The procedure: Solutions were at room temperature in standard buffer. The fluorescence intensity for each compound at a given wavelength and concentration was normalized to its value at the maximum biosensor concentration, in order to facilitate comparison and show linearity over a large concentration range.
Experiments were performed to identify the important contributions to the observed Trp fluorescence quenching. In the fully extended biosensor I (FIG. 1) cryptophane and Trp were separated by approximately 40 Å. Temperature dependence studies identified little contribution to Trp quenching from the cryptophane within the intact biosensor I. The observed decrease in Trp fluorescence at elevated temperatures (λem=358 nm, F/F0=0.3 at 353 K) was virtually identical to that seen with the Trp-containing hexapeptide 3, and was thus attributed to temperature-dependent solvent quenching by non-radiative decay processes. […] This was confirmed with I and II by comparing the concentration dependence of fluorescence intensity (λex=295 nm, λem=318 nm for cryptophane and λem=358 nm for Trp), after correcting for inner filter effects and dilution. Neither compound's fluorescence intensity deviated from linearity over the concentration range, 1-250 μM (FIG. 8). The absorption and fluorescence maxima were unchanged over this range.

Data set [2] deals with T1, MMP-7 (Homo sapiens, UniProt P09237).
T1 construct: BIOMOL International LP, MMP-7 (recombinant, catalytic domain); purchased BIOMOL International LP
T1 sequence (P09237 95-267): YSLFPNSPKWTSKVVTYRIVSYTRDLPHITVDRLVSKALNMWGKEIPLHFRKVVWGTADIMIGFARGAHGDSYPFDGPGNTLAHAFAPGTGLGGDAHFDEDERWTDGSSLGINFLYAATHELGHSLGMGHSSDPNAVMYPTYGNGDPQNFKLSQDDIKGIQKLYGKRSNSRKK
Kind of data set: fluorometric MMP-7 enzymatic assay (Trp fluorescence). In kind it is biochemical. How it is done: Fluorescence spectra of I and II dissolved in standard buffer (λex=295 nm) were measured in small volume, 1-cm pathlength quartz cuvettes at 298 K using a Varian Cary Eclipse fluorescence spectrophotometer operated with the Cary Eclipse Bio software package (1 nm steps, 5 nm excitation and emission slits). Kinetics data were collected at 30 s intervals using the same software on samples with controlled temperature and stirring.
For the fluorometric enzymatic assay, an aliquot (2 μL) of active MMP-7 (0.454 μg/μL) was added into 0.998 mL solution of ^129Xe biosensor I with known concentration at 298 K. Fluorescence spectra were collected from 310-450 nm. All reported fluorescence data are uncorrected and are roughly 5 nm red-shifted from the values obtained when the instrumental correction feature is employed. Trp fluorescence at 400 nm was analyzed as a function of time, since there was little contribution at this wavelength from monopropargyl-cryptophane-A fluorescence. The enzyme activity was calculated from the initial rate of decrease in Trp emission at 400 nm, over the time interval that corresponded to the first 10-15% completion of the reaction. The kcat/KM value for biosensor I was calculated by non-linear regression of the activity data by varying the biosensor concentration from 6-100 μM; double-reciprocal 1/v versus 1/[S] Lineweaver-Burk plots^49 gave a similar kcat/KM value.
In enzyme kinetics studies, the fluorescence spectrum of I was taken at 30 s intervals after addition of MMP-7 (FIG. 7b). A continuous decrease of Trp emission was observed. The change in fluorescence intensity at 400 nm was used to calculate the initial velocity (v) of the enzyme reaction. The v values determined by HPLC and fluorometric methods were in excellent agreement (Table 1), which validated using the fluorometric assay to monitor this enzyme reaction. The Trp fluorescence assays were easier to run, allowed continuous monitoring of the reaction, provided greater sensitivity, and required less material than HPLC-based UV-vis absorbance measurements.

Data set [3] concerns the target T1, MMP-7. Kind of data set: MMP-7 enzyme kinetic parameters, Michaelis-Menten fit of initial velocities. The class given is biochemical. The procedure:
(§1) At rt, an aliquot (2 μL) of active MMP-7 (0.454 μg/μL) was added into 0.998 mL of a freshly prepared solution of biosensor I at a known concentration in standard buffer. The extinction coefficient of I, ε=15,000 M^−1 cm^−1 at 280 nm in water, was determined from a solution containing the weighed sample. At approximately 3 min intervals, 70 μL aliquots were removed from the reaction mixture and immediately quenched with 30 μL of a 40 mM EDTA solution. Each aliquot was analyzed by HPLC with the gradient: time 0, A/B=75/25; 0-30 min, linear increase to A/B=45/55; 30-32 min, linear change to A/B=20/80; 32-42 min, A/B=20/80. The retention times for I and II were 15.6 min and 17.9 min, respectively. The enzyme activity was determined from the initial rate of increase in the concentration of cleaved sensor II, during the consumption of the first 10-15% of substrate I. The absorbance at 280 nm of the growing peak at 17.9 min was integrated and compared for each time point. Initial velocities were measured at substrate I concentrations of 6, 16, 28, 38, 48, 74 and 100 μM.
(§2) The kcat/KM value for all peptide substrates was calculated based on the Michaelis-Menten equation (Equation 1) after fitting the activity data at varying substrate concentrations with a non-linear regression curve: […]
(§3) For the azidopeptide substrate 1, enzyme activity was determined similarly by HPLC with the gradient: time 0, A/B=90/10; 0-30 min, linear increase to A/B=60/40; 30-32 min, linear change to A/B=20/80; 32-42 min, A/B=20/80. Peak areas were monitored for the intact substrate 1 and cleaved hexapeptide product 3 at retention times of 17.0 and 10.3 min, respectively. Initial velocities were measured at substrate 1 concentrations of 6, 50, 100, and 870 μM.
(§4) For the fluorometric enzymatic assay, an aliquot (2 μL) of active MMP-7 (0.454 μg/μL) was added into 0.998 mL solution of ^129Xe biosensor I with known concentration at 298 K. Fluorescence spectra were collected from 310-450 nm. […]

The target of data set [4] is T1, MMP-7. Kind of data set: MMP-7 enzymatic assay monitored by HPLC (UV-vis). The class given is biochemical. The procedure: as §1, §3
The ability of MMP-7 to hydrolyze ^129Xe biosensor I was initially confirmed by HPLC analysis (FIG. 3a). A standard assay was performed by incubating a 1 mL reaction mixture of 32 nmol I and 42 pmol MMP-7 at 310 K. Reaction progress was monitored by analyzing aliquots of the reaction mixture at regular intervals. […] MALDI-TOF mass spectrometry identified these new peaks as the cleaved hexapeptide LWRSRK 3 and cryptophane-peptide product II, respectively. The peptide cleavage pattern agreed with previous assays using this substrate. […]

For data set [5], the system named is Trp-containing hexapeptide LWRSRK 3. Kind of data set: Stern-Volmer fluorescence quenching of hexapeptide 3 by cleaved biosensor II. The class given is binding. As to conditions: 3 at 16 μM, II 0-120 μM, 298 K, standard buffer; listed as II. How it is done: Solution of 3 was titrated with 3.18 mM II, to achieve concentrations of II between 0 and 120 μM. Steady-state fluorescence measurements found the ratio of initial fluorescence, F0, to observed fluorescence, F, at each quencher concentration. The linear fit gave an R^2 value of 0.88, which indicated a dominant static quenching mechanism. The slope of this line gave the association constant, KS=9000 M^−1, for the II-3 complex.
Having ruled out a prevalent role for intra- and intermolecular interactions within or between biosensors, we sought further to explain the decrease in Trp fluorescence upon enzymatic cleavage. […] To examine this quenching mechanism, the steady-state fluorescence intensity of the hexapeptide LWRSRK 3 was measured as a function of the cleaved sensor II (putative quencher) concentration in standard buffer. This Stern-Volmer experiment could only be performed within a limited range of II concentrations, due to limitations in the quantity of material and the contribution of this compound to total fluorescence. […] All fluorescence spectra were corrected to remove contributions from cryptophane. The resulting fluorescence maximum at 358 nm, which corresponded to Trp emission of I, decreased with successive additions of II. […]

For data set [6], the target named is T1, MMP-7. As to conditions: reported previously at 303 K; cited from earlier work.
Data set [7] has as its target T2, MMP-7-responsive 129Xe biosensor I (monopropargyl-cryptophane-A coupled to azidopeptide RKRPLALWRSRK).
T2 chain: RKRPLALWRSRK

The target of data set [8] is T3, azidopeptide N3-CH2CH2-CONH2-RKRPLALWRSRK
T3 chain: RKRPLALWRSRK

Substrate in data set [9]: CC(C)C[C@H](NC(=O)[C@H](C)NC(=O)[C@H](CC(C)C)NC(=O)[C@@H]1CCCN1C(=O)[C@H](CCCNC(=N)N)NC(=O)[C@H](CCCCN)NC(=O)[C@H](CCCNC(=N)N)NC(=O)CCN=[N+]=[N-])C(=O)N[C@@H](Cc1c[nH]c2ccccc12)C(=O)N[C@@H](CCCNC(=N)N)C(=O)N[C@@H](CO)C(=O)N[C@@H](CCCNC(=N)N)C(=O)N[C@@H](CCCCN)C(=O)O
Kind of data set: MMP-7 enzyme kinetic parameters, Michaelis-Menten fit of initial velocities. The class given is biochemical. The following applies: other: MMP-7 42 nM, 298 K, standard buffer. How it is done: as §1, §2, §3, §4

In the next data set the target is T4, hexapeptide LWRSRK.
T4 sequence (peptide): LWRSRK
Kind of data set: Stern-Volmer steady-state Trp fluorescence quenching; hexapeptide 3 (16 µM) titrated with II (0-120 µM), 298 K, standard buffer.

The mark [10] stands for this setting: MMP-7 42 nM, 298 K, standard buffer.

As a reminder, the Km is the substrate concentration at which the rate is half of its maximum. Usually Vmax stands for the top rate of the reaction or transport when substrate is in excess. For orientation: KM means the concentration of substrate that gives half-maximal velocity. As a reminder, the kcat/KM is the second-order rate constant that governs catalysis at low substrate concentration. As usually defined, the kcat/Km is the second-order rate constant that governs catalysis at low substrate concentration.

“And” between values parts separate entries of the source, which are not always exact repeats. Equal entries are not always repeated. Where two headings read alike, the source gives them in different places. * marks the point of attachment. monopropargyl‑cryptophane‑A = monopropargyl-cryptophane-A, coupled to the azido-peptide by Cu(I)-mediated coupling; 3‑azidopropionyl = [N-]=[N+]=NCCC(=O)*

As for “Biosensor I: monopropargyl-cryptophane-A 7 coupled by [3+2] cycloaddition to azidopeptide 1 (RKRPLALWRSRK); MMP-7-responsive 129Xe biosensor ({monopropargyl‑cryptophane‑A (triazole via Cu(I) (3+2) cycloaddition)-3‑azidopropionyl}-RKRPLALWRSRK-OH)”, in data set [1], the aggregation in solution entry is “unlikely to aggregate”. Besides, the “Initial velocity, fluorometric assay” value is on record as 0.9 pmol/s with MMP-7 [2] (Biosensor I 6 μM), 9 pmol/s in the data set with MMP-7 [2] (Biosensor I 50 μM) and 8 pmol/s with MMP-7 [2] (Biosensor I 100 μM). The “fold lower Vmax relative to substrate 1” value with MMP-7 [3] is recorded as 3.6 fold. Besides, the Km in the data set with MMP-7 [3] (setting [10]) was found to be 43 µM. Moreover, the Vmax with MMP-7 [3] (setting [10]) is 1.3e-08 M/s. The entries for the “Initial velocity, HPLC assay” value with MMP-7 [4] (Biosensor I 6 μM), with MMP-7 [4] (Biosensor I 50 μM) and with MMP-7 [4] (Biosensor I 100 μM) were 1 pmol/s, 10 pmol/s and 7 pmol/s, respectively.

As for “Biosensor II: monopropargyl-cryptophane-A 7 coupled to azidopeptide 2 (RKRPLA); MMP-7 cleaved product of I ({monopropargyl‑cryptophane‑A-3‑azidopropionyl (triazole link)}-RKRPLA-OH)”, the aggregation in solution result in data set [1] was “unlikely to aggregate”. Also, the “association constant KS of the II-3 complex” value in data set [5] is 9000 ± 1000 M⁻¹ and 9000 M⁻¹.

As for “dinitrophenyl-Arg-Pro-Leu-Ala-Leu-Trp-Arg-Ser”, the Km on MMP-7 [6] was 26 µM.

B1: MMP-7 (Homo sapiens) (protein)
chain: T1 sequence (P09237 95-267)
notes: BIOMOL International LP, MMP-7 (recombinant, catalytic domain); purchased BIOMOL International LP
In the case of B1, in data set [7], the KM worked out at 43 µM; the Vmax came to 1.3e-08 M/s; the “initial velocity v of proteolysis of biosensor I by MMP-7 (42 nM), fluorometric assay, 298 K; shown without a printed number” value was “v rises with [Biosensor I] from about 1 nM s-1 at about 6 µM to about 8-9 nM s-1 at 74-100 µM; the Michaelis-Menten fit line is still rising at 100 µM, no upper plateau inside the range”; the kcat/KM was 7200 M⁻¹ s⁻¹. Also, in data set [8], the KM was 150 µM, the Vmax worked out at 4.7e-08 M/s and the kcat/KM turned out to be 7300 M⁻¹ s⁻¹. Also, in data set [9], the Km was determined as 150 µM, the Vmax amounted to 2.82 µM/min and the kcat/Km was determined as 7300 M⁻¹ s⁻¹.

Turning to {monopropargyl‑cryptophane‑A (via triazole, CuAAC)-3‑azidopropionyl}-RKRPLA-OH [cleaved biosensor II (monopropargyl-cryptophane-A coupled to azidopeptide RKRPLA)], in the data set with hexapeptide LWRSRK, the Ka turned out to be 9000 M⁻¹.
